B1: Antiviral innate immune response receptor RIG-I (Mus musculus), Q6Q899-1 (parent)
chain: MTAEQRQNLQAFRDYIKKILDPTYILSYMSSWLEDEEVQYIQAEKNNKGPMEAASLFLQYLLKLQSEGWFQAFLDALYHAGYCGLCEAIESWDFQKIEKLEEHRLLLRRLEPEFKATVDPNDILSELSECLINQECEEIRQIRDTKGRMAGAEKMAECLIRSDKENWPKVLQLALEKDNSKFSELWIVDKGFKRAESKADEDDGAEASSIQIFIQEEPECQNLSQNPGPPSEASSNNLHSPLKPRNYQLELALPAKKGKNTIICAPTGCGKTFVSLLICEHHLKKFPCGQKGKVVFFANQIPVYEQQATVFSRYFERLGYNIASISGATSDSVSVQHIIEDNDIIILTPQILVNNLNNGAIPSLSVFTLMIFDECHNTSKNHPYNQIMFRYLDHKLGESRDPLPQVVGLTASVGVGDAKTAEEAMQHICKLCAALDASVIATVRDNVAELEQVVYKPQKISRKVASRTSNTFKCIISQLMKETEKLAKDVSEELGKLFQIQNREFGTQKYEQWIVGVHKACSVFQMADKEEESRVCKALFLYTSHLRKYNDALIISEDAQMTDALNYLKAFFHDVREAAFDETERELTRRFEEKLEELEKVSRDPSNENPKLRDLYLVLQEEYHLKPETKTILFVKTRALVDALKKWIEENPALSFLKPGILTGRGRTNRATGMTLPAQKCVLEAFRASGDNNILIATSVADEGIDIAECNLVILYEYVGNVIKMIQTRGRGRARDSKCFLLTSSADVIEKEKANMIKEKIMNESILRLQTWDEMKFGKTVHRIQVNEKLLRDSQHKPQPVPDKENKKLLCGKCKNFACYTADIRVVETSHYTVLGDAFKERFVCKPHPKPKIYDNFEKKAKIFCAKQNCSHDWGIFVRYKTFEIPVIKIESFVVEDIVSGVQNRHSKWKDFHFERIQFDPAEMSV
B2: Non-structural protein V (measles virus (strai), P0C774 (parent)
chain: MAEEQARHVKNGLECIRALKAEPIGSLAVEEAMAAWSEISDNPGQDRATCKEEEAGSSGLSKPCLSAIGSTEGGAPRIRGQGSGESDDDAETLGIPSRNLQASSTGLQCYHVYDHSGEAVKGIQDADSIMVQSGLDGDSTLSGGDDESENSDVDIGEPDTEGYAITDRGSAPISMGFRASDVETAEGGEIHELLKLQSRGNNFPKLGKTLNVPPPPNPSRASTSETPIKKGHRREIGLIWNGDRVFIDRWCNPMCSKVTLGTIRARCTCGECPRVCEQCRTDTGVDTRIWYHNLPEIPE
partner: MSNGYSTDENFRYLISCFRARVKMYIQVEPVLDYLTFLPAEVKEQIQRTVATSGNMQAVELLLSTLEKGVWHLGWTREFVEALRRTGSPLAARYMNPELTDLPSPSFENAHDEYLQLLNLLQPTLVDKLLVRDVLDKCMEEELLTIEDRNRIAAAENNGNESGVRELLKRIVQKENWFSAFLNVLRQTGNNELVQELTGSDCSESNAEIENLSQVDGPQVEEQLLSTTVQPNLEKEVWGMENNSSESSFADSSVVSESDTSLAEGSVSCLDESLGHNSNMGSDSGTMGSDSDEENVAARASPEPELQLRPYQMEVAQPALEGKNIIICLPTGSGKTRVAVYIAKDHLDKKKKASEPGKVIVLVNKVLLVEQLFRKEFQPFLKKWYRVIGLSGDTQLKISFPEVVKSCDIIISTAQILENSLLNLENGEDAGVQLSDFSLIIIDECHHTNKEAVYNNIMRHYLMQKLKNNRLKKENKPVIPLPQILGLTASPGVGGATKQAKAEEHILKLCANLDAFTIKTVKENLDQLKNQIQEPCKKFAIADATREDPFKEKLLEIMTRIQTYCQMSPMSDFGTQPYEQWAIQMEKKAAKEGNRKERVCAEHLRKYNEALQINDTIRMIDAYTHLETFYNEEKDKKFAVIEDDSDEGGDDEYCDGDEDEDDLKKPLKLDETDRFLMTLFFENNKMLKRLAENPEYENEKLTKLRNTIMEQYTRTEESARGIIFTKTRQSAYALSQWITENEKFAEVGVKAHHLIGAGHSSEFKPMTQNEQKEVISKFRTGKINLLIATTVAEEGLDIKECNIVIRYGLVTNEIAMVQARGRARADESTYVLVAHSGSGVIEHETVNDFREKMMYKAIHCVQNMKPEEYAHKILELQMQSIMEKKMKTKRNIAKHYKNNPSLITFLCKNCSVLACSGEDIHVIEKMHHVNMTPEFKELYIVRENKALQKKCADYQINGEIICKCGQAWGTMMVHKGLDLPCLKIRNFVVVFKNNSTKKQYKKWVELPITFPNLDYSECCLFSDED
B3: Interferon-induced helicase C domain-containing protein 1 (Homo sapiens), Q9BYX4 (parent)
chain: B2 partner
partner: B2 chain
B4: Interferon-induced helicase C domain-containing protein 1 (Mus musculus), Q8R5F7-1 (parent)
chain: MSIVCSAEDSFRNLILFFRPRLKMYIQVEPVLDHLIFLSAETKEQILKKINTCGNTSAAELLLSTLEQGQWPLGWTQMFVEALEHSGNPLAARYVKPTLTDLPSPSSETAHDECLHLLTLLQPTLVDKLLINDVLDTCFEKGLLTVEDRNRISAAGNSGNESGVRELLRRIVQKENWFSTFLDVLRQTGNDALFQELTGGGCPEDNTDLANSSHRDGPAANECLLPAVDESSLETEAWNVDDILPEASCTDSSVTTESDTSLAEGSVSCFDESLGHNSNMGRDSGTMGSDSDESVIQTKRVSPEPELQLRPYQMEVAQPALDGKNIIICLPTGSGKTRVAVYITKDHLDKKKQASESGKVIVLVNKVMLAEQLFRKEFNPYLKKWYRIIGLSGDTQLKISFPEVVKSYDVIISTAQILENSLLNLESGDDDGVQLSDFSLIIIDECHHTNKEAVYNNIMRRYLKQKLRNNDLKKQNKPAIPLPQILGLTASPGVGAAKKQSEAEKHILNICANLDAFTIKTVKENLGQLKHQIKEPCKKFVIADDTRENPFKEKLLEIMASIQTYCQKSPMSDFGTQHYEQWAIQMEKKAAKDGNRKDRVCAEHLRKYNEALQINDTIRMIDAYSHLETFYTDEKEKKFAVLNDSDKSDDEASSCNDQLKGDVKKSLKLDETDEFLMNLFFDNKKMLKKLAENPKYENEKLIKLRNTILEQFTRSEESSRGIIFTKTRQSTYALSQWIMENAKFAEVGVKAHHLIGAGHSSEVKPMTQTEQKEVISKFRTGEINLLIATTVAEEGLDIKECNIVIRYGLVTNEIAMVQARGRARADESTYVLVTSSGSGVTEREIVNDFREKMMYKAINRVQNMKPEEYAHKILELQVQSILEKKMKVKRSIAKQYNDNPSLITLLCKNCSMLVCSGENIHVIEKMHHVNMTPEFKGLYIVRENKALQKKFADYQTNGEIICKCGQAWGTMMVHKGLDLPCLKIRNFVVNFKNNSPKKQYKKWVELPIRFPDLDYSEYCLYSDED
B5: Non-structural protein V (Simian virus 5 (strain W3)), P11207 (parent)
chain: MDPTDLSFSPDEINKLIETGLNTVEYFTSQQVTGTSSLGKNTIPPGVTGLLTNAAEAKIQESTNHQKGSVGGGAKPKKPRPKIAIVPADDKTVPGKPIPNPLLGLDSTPSTQTVLDLSGKTLPSGSYKGVKLAKFGKENLMTRFIEEPRENPIATSSPIDFKRGRDTGGFHRREYSIGWVGDEVKVTEWCNPSCSPITAAARRFECTCHQCPVTCSECERDT
partner: B4 chain
B6: Antiviral innate immune response receptor RIG-I (Homo sapiens), O95786-1 (parent)
chain: MTTEQRRSLQAFQDYIRKTLDPTYILSYMAPWFREEEVQYIQAEKNNKGPMEAATLFLKFLLELQEEGWFRGFLDALDHAGYSGLYEAIESWDFKKIEKLEEYRLLLKRLQPEFKTRIIPTDIISDLSECLINQECEEILQICSTKGMMAGAEKLVECLLRSDKENWPKTLKLALEKERNKFSELWIVEKGIKDVETEDLEDKMETSDIQIFYQEDPECQNLSENSCPPSEVSDTNLYSPFKPRNYQLELALPAMKGKNTIICAPTGCGKTFVSLLICEHHLKKFPQGQKGKVVFFANQIPVYEQQKSVFSKYFERHGYRVTGISGATAENVPVEQIVENNDIIILTPQILVNNLKKGTIPSLSIFTLMIFDECHNTSKQHPYNMIMFNYLDQKLGGSSGPLPQVIGLTASVGVGDAKNTDEALDYICKLCASLDASVIATVKHNLEELEQVVYKPQKFFRKVESRISDKFKYIIAQLMRDTESLAKRICKDLENLSQIQNREFGTQKYEQWIVTVQKACMVFQMPDKDEESRICKALFLYTSHLRKYNDALIISEHARMKDALDYLKDFFSNVRAAGFDEIEQDLTQRFEEKLQELESVSRDPSNENPKLEDLCFILQEEYHLNPETITILFVKTRALVDALKNWIEGNPKLSFLKPGILTGRGKTNQNTGMTLPAQKCILDAFKASGDHNILIATSVADEGIDIAQCNLVILYEYVGNVIKMIQTRGRGRARGSKCFLLTSNAGVIEKEQINMYKEKMMNDSILRLQTWDEAVFREKILHIQTHEKFIRDSQEKPKPVPDKENKKLLCRKCKALACYTADVRVIEECHYTVLGDAFKECFVSRPHPKPKQFSSFEKRAKIFCARQNCSHDWGIHVKYKTFEIPVIKIESFVVEDIATGVQTLYSKWKDFHFEKIPFDPAEMSK
partner: B2 chain

Variants of: B1
Conditions: with v_piv5 P/V

| Variant | effect of a mutation on the interaction |
| --- | --- |
| L715R;E717G | increasing interaction strength |

Variants of: B2
Conditions: with ifih1_human IFIH1, Q9BYX4

| Variant | effect of a mutation on the interaction |
| --- | --- |
| E235A | decreasing interaction strength |

Variants of: B3
Conditions: with v_measc P/V

| Variant | effect of a mutation on the interaction |
| --- | --- |
| R806L | decreasing interaction strength |

Variants of: B4
Conditions: with v_piv5 P/V

| Variant | effect of a mutation on the interaction |
| --- | --- |
| R806L | disrupting interaction strength |

Variants of: B5
Conditions: with Ifih1, Q8R5F7-1

| Variant | effect of a mutation on the interaction |
| --- | --- |
| E174A | decreasing interaction strength |

Variants of: B6
Conditions: with v_measc P/V

| Variant | effect of a mutation on the interaction |
| --- | --- |
| L714R | increasing interaction strength |
| L714R;E716G | increasing interaction strength |

Reference: IntAct's records for PubMed 23328395
